Experimental data published in patent publication US20200072853A1.

Columns and labels:
human BNP(1-32) (human) [1] = assay: sandwich ELISA; capture L21016; BNP(1-32) 20 pg/ml; detection mAb 0.5 ug/ml
human BNP(1-32) (human) [2] = assay: sandwich ELISA; capture L21016; BNP(1-32) 39 pg/ml; detection mAb 0.5 ug/ml
human BNP(1-32) (human) [3] = assay: sandwich ELISA; capture L21016; BNP(1-32) 78 pg/ml; detection mAb 0.5 ug/ml
human BNP(1-32) (human) [4] = assay: sandwich ELISA; capture L21016; BNP(1-32) 625 pg/ml; detection mAb 0.5 ug/ml
human BNP(1-32) (human) [5] = assay: sandwich ELISA; capture L21016; BNP(1-32) 1,250 pg/ml; detection mAb 0.5 ug/ml
human BNP(1-32) (human) [6] = assay: sandwich ELISA; capture L21016; BNP(1-32) 2,500 pg/ml; detection mAb 0.5 ug/ml
human BNP(1-32) (human) [7] = assay: sandwich ELISA; capture L21016; BNP(1-32) 312.5 pg/ml; detection mAb 0.5 ug/ml
human BNP(1-32) (human) [8] = assay: sandwich ELISA; capture L21016; BNP(1-32) 5,000 pg/ml; detection mAb 0.5 ug/ml
human BNP(1-32) (human) [9] = assay: sandwich ELISA; capture L21016; BNP(1-32) 10,000 pg/ml; detection mAb 0.5 ug/ml
human BNP(1-32) (human) [10] = assay: sandwich ELISA; capture L21016; BNP(1-32) 156.25 pg/ml; detection mAb 0.5 ug/ml
human BNP(1-32) (human) [11] = assay: sandwich ELISA; capture L21016; BNP(1-32) 0 pg/ml (blank); detection mAb 0.5 ug/ml
[12] = target: human proBNP(1-108), recombinant protein produced in E. coli (non-glycosylated) (human) (UniProt P16860); assay: sandwich ELISA; capture hinge 76; proBNP(1-108) 20 pg/ml; detection mAb-peroxidase 0.5 ug/ml
Sequence of human proBNP(1-108), recombinant protein produced in E. coli (non-glycosylated) (human) (P16860 27-134): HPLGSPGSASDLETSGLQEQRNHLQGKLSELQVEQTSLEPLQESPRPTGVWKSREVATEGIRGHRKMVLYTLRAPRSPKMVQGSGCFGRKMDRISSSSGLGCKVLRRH

[13] = target: human proBNP(1-108), recombinant protein produced in E. coli (non-glycosylated) (human) (UniProt P16860); assay: sandwich ELISA; capture hinge 76; proBNP(1-108) 39 pg/ml; detection mAb-peroxidase 0.5 ug/ml
[14] = target: human proBNP(1-108), recombinant protein produced in E. coli (non-glycosylated) (human) (UniProt P16860); assay: sandwich ELISA; capture hinge 76; proBNP(1-108) 78 pg/ml; detection mAb-peroxidase 0.5 ug/ml
[15] = target: human proBNP(1-108), recombinant protein produced in E. coli (non-glycosylated) (human) (UniProt P16860); assay: sandwich ELISA; capture hinge 76; proBNP(1-108) 625 pg/ml; detection mAb-peroxidase 0.5 ug/ml
[16] = target: human proBNP(1-108), recombinant protein produced in E. coli (non-glycosylated) (human) (UniProt P16860); assay: sandwich ELISA; capture hinge 76; proBNP(1-108) 1,250 pg/ml; detection mAb-peroxidase 0.5 ug/ml
[17] = target: human proBNP(1-108), recombinant protein produced in E. coli (non-glycosylated) (human) (UniProt P16860); assay: sandwich ELISA; capture hinge 76; proBNP(1-108) 2,500 pg/ml; detection mAb-peroxidase 0.5 ug/ml
[18] = target: human proBNP(1-108), recombinant protein produced in E. coli (non-glycosylated) (human) (UniProt P16860); assay: sandwich ELISA; capture hinge 76; proBNP(1-108) 312.5 pg/ml; detection mAb-peroxidase 0.5 ug/ml
[19] = target: human proBNP(1-108), recombinant protein produced in E. coli (non-glycosylated) (human) (UniProt P16860); assay: sandwich ELISA; capture hinge 76; proBNP(1-108) 5,000 pg/ml; detection mAb-peroxidase 0.5 ug/ml
[20] = target: human proBNP(1-108), recombinant protein produced in E. coli (non-glycosylated) (human) (UniProt P16860); assay: sandwich ELISA; capture hinge 76; proBNP(1-108) 10,000 pg/ml; detection mAb-peroxidase 0.5 ug/ml
[21] = target: human proBNP(1-108), recombinant protein produced in E. coli (non-glycosylated) (human) (UniProt P16860); assay: sandwich ELISA; capture hinge 76; proBNP(1-108) 156.25 pg/ml; detection mAb-peroxidase 0.5 ug/ml
[22] = target: human proBNP(1-108), recombinant protein produced in E. coli (non-glycosylated) (human) (UniProt P16860); assay: sandwich ELISA; capture hinge 76; proBNP(1-108) 0 pg/ml (blank); detection mAb-peroxidase 0.5 ug/ml

Sequence of human BNP(1-32) (human) (peptide, as listed by the source): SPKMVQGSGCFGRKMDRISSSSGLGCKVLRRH

OD 490 nm (human BNP(1-32) (human) [1])	OD 490 nm (human BNP(1-32) (human) [2])	OD 490 nm (human BNP(1-32) (human) [3])	OD 490 nm (human BNP(1-32) (human) [4])	OD 490 nm (human BNP(1-32) (human) [5])	OD 490 nm (human BNP(1-32) (human) [6])	OD 490 nm (human BNP(1-32) (human) [7])	OD 490 nm (human BNP(1-32) (human) [8])	OD 490 nm (human BNP(1-32) (human) [9])	OD 490 nm (human BNP(1-32) (human) [10])	OD 490 nm (human BNP(1-32) (human) [11])	OD [12]	OD [13]	OD [14]	OD [15]	OD [16]	OD [17]	OD [18]	OD [19]	OD [20]	Substance	further results
0.068 OD	0.055 OD	0.052 OD	0.059 OD	0.056 OD	0.067 OD	0.063 OD	0.068 OD	0.077 OD	0.071 OD	0.071 OD	0.052 OD	0.056 OD	0.056 OD	0.07 OD	0.068 OD	0.069 OD	0.035 OD	0.117 OD	0.22 OD	24C5 monoclonal antibody (HyTest, Turku, Finland)	OD [21]: 0.055 OD; OD [22]: 0.044 OD
0.034 OD	0.032 OD	0.055 OD	0.029 OD	0.031 OD	0.035 OD	0.027 OD	0.041 OD	0.048 OD	0.032 OD	0.022 OD	0.028 OD	0.028 OD	0.033 OD	0.024 OD	0.024 OD	0.031 OD	0.028 OD	0.041 OD	0.158 OD	26E2 monoclonal antibody (HyTest, Turku, Finland)	OD [21]: 0.027 OD; OD [22]: 0.024 OD
